Laboratory results as given in patent US20250339531A1, “DUX4 POLYPEPTIDES AND NUCLEIC ACIDS FOR TREATING INFLAMMATORY AND AUTOIMMUNE CONDITIONS” (Fred Hutchinson Cancer Center, priority 2021, published 2025).

B1: GNAI2 (protein)
chain: GCTVSAEDKAAAERSKMIDKNLREDGEKAAREVKLLLLGAGESGKSTIVKQMKIIHEDGYSEEECRQYRAVVYSNTIQSIMAIVKAMGNLQIDFADPSRADDARQLFALSCTAEEQGVLPDDLSGVIRRLWADHGVQACFGRSREYQLNDSAAYYLNDLERIAQSDYIPTQQDVLRTRVKTTGIVETHFTFKDLHFKMFDVGGQRSERKKWIHCFEGVTAIIFCVALSAYDLVLAEDEEMNRMHESMKLFDSICNNKWFTDTSIILFLNKKDLFEEKITHSPLTICFPEYTGANKYDEAASYIQSKFEDLNKRKDTKEIYTHFTCATDTKNVQFVFDAVTDVIIKNNLKDCGLF
B2: PLOD2 (protein)
chain: ADSEKPSSIPTDKLLVITVATKESDGFHRFMQSAKYFNYTVKVLGQGEEWRGGDGINSIGGGQKVRLMKEVMEHYADQDDLVVMFTECFDVIFAGGPEEVLKKFQKANHKVVFAADGILWPDKRLADKYPVVHIGKRYLNSGGFIGYAPYVNRIVQQWNLQDNDDDQLFYTKVYIDPLKREAINITLDHKCKIFQTLNGAVDEVVLKFENGKARAKNTFYETLPVAINGNGPTKILLNYFGNYVPNSWTQDNGCTLCEFDTVDLSAVDVHPNVSIGVFIEQPTPFLPRFLDILLTLDYPKEALKLFIHNKEVYHEKDIKVFFDKAKHEIKTIKIVGPEENLSQAEARNMGMDFCRQDEKCDYYFSVDADVVLTNPRTLKILIEQNRKIIAPLVTRHGKLWSNFWGALSPDGYYARSEDYVDIVQGNRVGVWNVPYMANVYLIKGKTLRSEMNERNYFVRDKLDPDMALCRNAREMGVFMYISNRHEFGRLLSTANYNTSHYNNDLWQIFENPVDWKEKYINRDYSKIFTENIVEQPCPDVFWFPIFSEKACDELVEEMEHYGKWSGGKHHDSRISGGYENVPTDDIHMKQVDLENVWLHFIREFIAPVTLKVFAGYYTKGFALLNFVVKYSPERQRSLRPHHDASTFTINIALNNVGEDFQGGGCKFLRYNCSIESPRKGWSFMHPGRLTHLHEGLPVKNGTRYIAVSFIDP
B3: ATP2B1 (protein)
chain: GDMANNSVAYSGVKNSLKEANHDGDFGITLAELRALMELRSTDALRKIQESYGDVYGICTKLKTSPNEGLSGNPADLERREAVFGKNFIPPKKPKTFLQLVWEALQDVTLIILEIAAIVSLGLSFYQPPEGDNALCGEVSVGEEEGEGETGWIEGAAILLSVVCVVLVTAFNDWSKEKQFRGLQSRIEQEQKFTVIRGGQVIQIPVADITVGDIAQVKYGDLLPADGILIQGNDLKIDESSLTGESDHVKKSLDKDPLLLSGTHVMEGSGRMVVTAVGVNSQTGIIFTLLGAGGEEEEKKDEKKKEKKNKKQDGAIENRNKAKAQDGAAMEMQPLKSEEGGDGDEKDKKKANLPKKEKSVLQGKLTKLAVQIGKAGLLMSAITVIILVLYFVIDTFWVQKRPWLAECTPIYIQYFVKFFIIGVTVLVVAVPEGLPLAVTISLAYSVKKMMKDNNLVRHLDACETMGNATAICSDKTGTLTMNRMTVVQAYINEKHYKKVPEPEAIPPNILSYLVTGISVNCAYTSKILPPEKEGGLPRHVGNKTECALLGLLLDLKRDYQDVRNEIPEEALYKVYTFNSVRKSMSTVLKNSDGSYRIFSKGASEIILKKCFKILSANGEAKVFRPRDRDDIVKTVIEPMASEGLRTICLAFRDFPAGEPEPEWDNENDIVTGLTCIAVVGIEDPVRPEVPDAIKKCQRAGITVRMVTGDNINTARAIATKCGILHPGEDFLCLEGKDFNRRIRNEKGEIEQERIDKIWPKLRVLARSSPTDKHTLVKGIIDSTVSDQRQVVAVTGDGTNDGPALKKADVGFAMGIAGTDVAKEASDIILTDDNFTSIVKAVMWGRNVYDSISKFLQFQLTVNVVAVIVAFTGACITQDSPLKAVQMLWVNLIMDTLASLALATEPPTESLLLRKPYGRNKPLISRTMMKNILGHAFYQLVVVFTLLFAGEKFFDIDSGRNAPLHAPPSEHYTIVFNTFVLMQLFNEINARKIHGERNVFEGIFNNAIFCTIVLGTFVVQIIIVQFGGKPFSCSELSIEQWLWSIFLGMGTLLWGQLISTIPTSRLKFLKEAGHGTQKEEIPEEELAEDVEEIDHAERELRRGQILWFRGLNRIQTQIRVVNAFRSSLYEGLEKPESRSSIHNFMTHPEFRIEDSEPHIPLIDDTDAEDDAPTKRNSSPPPSPNKNNNAVDSGIHLTIEMNKSATSSSPGSPLHSLETSL
B4: AP2M1 (protein)
chain: MIGGLFIYNHKGEVLISRVYRDDIGSRQAADSAVFSSSGPFPGEWLEANRRNAVDAFRVNVIHARQQVRSPVTNIARTSFFHVKRSNIWLAAVTKQNVNAAMVFEFLYKMCDVMAAYFGKISEENIKNNFVLIYELLDEILDFGYPQNSETGALKTFITQQGIKSQHQTKEEQSQITSQVTGQIGWRREGIKYRRNELFLDVLESVNLLMSPQGQVLSAHVSGRVVMKSYLSGMPECKFGMNDKIVIEKQGKGTADETSKSGKQSIAIDDCTFHQCVRLSKFDSERSISFIPPDGEFELMRYRTTKDIILPFRVIPLVREVGRTKLEVKVVIKSNFKPSLLAQKIEVRIPTPLNTSGVQVICMKGKAKYKASENAIVWKIKRMAGMKESQISAEIELLPTNDKKKWARPPISMNFEVPFAPSGLKVRYLKVFEPKLNYSDHDVIKWVRYIGRSGIYETRC
B5: NCEH1 (protein)
chain: MRSSCVLLTALVALAAYYVYIPLPGSVSDPWKLMLLDATFRGAQQVSNLIHYLGLSHHLLALNFIIVSFGKKSAWSSAQVKVTDTDFDGVEVRVFEGPPKPEEPLKRSVVYIHGGGWALASAKIRYYDELCTAMAEELNAVIVSIEYRLVPKVYFPEQIHDVVRATKYFLKPEVLQKYMVDPGRICISGDSAGGNLAAALGQQFTQDASLKNKLKLQALIYPVLQALDFNTPSYQQNVNTPILPRYVMVKYWVDYFKGNYDFVQAMIVNNHTSLDVEEAAAVRARLNWTSLLPASFTKNYKPVVQTTGNARIVQELPQLLDARSAPLIADQAVLQLLPKTYILTCEHDVLRDDGIMYAKRLESAGVEVTLDHFEDGFHGCMIFTSWPTNFSVGIRTRNSYIKWLDQNL
B6: AHCYL1 (protein)
chain: SMPDAMPLPGVGEELKQAKEIEDAEKYSFMATVTKAPKKQIQFADDMQEFTKFPTKTGRRSLSRSISQSSTDSYSSAASYTDSSDDEVSPREKQQTNSKGSSNFCVKNIKQAEFGRREIEIAEQDMSALISLRKRAQGEKPLAGAKIVGCTHITAQTAVLIETLCALGAQCRWSACNIYSTQNEVAAALAEAGVAVFAWKGESEDDFWWCIDRCVNMDGWQANMILDDGGDLTHWVYKKYPNVFKKIRGIVEESVTGVHRLYQLSKAGKLCVPAMNVNDSVTKQKFDNLYCCRESILDGLKRTTDVMFGGKQVVVCGYGEVGKGCCAALKALGAIVYITEIDPICALQACMDGFRVVKLNEVIRQVDVVITCTGNKNVVTREHLDRMKNSCIVCNMGHSNTEIDVTSLRTPELTWERVRSQVDHVIWPDGKRVVLLAEGRLLNLSCSTVPTFVLSITATTQALALIELYNAPEGRYKQDVYLLPKKMDEYVASLHLPSFDAHLTELTDDQAKYLGLNKNGPFKPNYYRY
B7: RBBP7 (protein)
chain: ASKEMFEDTVEERVINEEYKIWKKNTPFLYDLVMTHALQWPSLTVQWLPEVTKPEGKDYALHWLVLGTHTSDEQNHLVVARVHIPNDDAQFDASHCDSDKGEFGGFGSVTGKIECEIKINHEGEVNRARYMPQNPHIIATKTPSSDVLVFDYTKHPAKPDPSGECNPDLRLRGHQKEGYGLSWNSNLSGHLLSASDDHTVCLWDINAGPKEGKIVDAKAIFTGHSAVVEDVAWHLLHESLFGSVADDQKLMIWDTRSNTTSKPSHLVDAHTAEVNCLSFNPYSEFILATGSADKTVALWDLRNLKLKLHTFESHKDEIFQVHWSPHNETILASSGTDRRLNVWDLSKIGEEQSAEDAEDGPPELLFIHGGHTAKISDFSWNPNEPWVICSVSEDNIMQIWQMAENIYNDEESDVTTSELEGQGS

system: proteins that co-immunoprecipitated with DUX4-CTD constructs expressed in MB135 myoblasts; assay: LC-MS of proteins co-immunoprecipitated with DUX4-CTD (Table 1) and western validation; assay type: binding, human; design: key to 4. mL1dL2 + Dox + IFNG / 4. + IFNG mix / 4. longCTD + Dox + IFNG / 3. + IFNg + Dox longCTD / 3. + Dox longCTD / 3. + IFNG longCTD: peptide-spectrum matches (PSMs) per protein; settings: LC-MS value per protein co-immunoprecipitated from MB135 myoblasts; + IFNG mix sample (no Dox); kind of count not given
How it was run: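 FLAG-tagged DUX4-CTD expressed in doxycycline-induced MB135 myoblasts, some also IFNG-treated; nuclear lysates in pH 7.4 NP-40 IP buffer were pre-cleared, then anti-FLAG immunoprecipitated 3 h at 4 °C. For LC-MS, FLAG-peptide elution, in-gel trypsin digest, Orbitrap analysis; proteins with ≥2 PSMs in both experiments categorised and ranked by total PSMs.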

Q: B1 was tested. Which “4. + IFNG mix” value did it give?
A: 7

Q: With B2 as the molecule, how does the “4. + IFNG mix” value read?
A: 7

Q: How did the “4. + IFNG mix” value turn out when B3 was run?
A: 10

same assay, conditions: LC-MS value per protein co-immunoprecipitated with DUX4-CTD construct mL1dL2 in MB135 myoblasts; + Dox + IFNG; kind of count not given

Q: Which “4. mL1dL2 + Dox + IFNG” value does the source give for B4 here?
A: 1

Q: B1 was tested. Which “4. mL1dL2 + Dox + IFNG” value did it give?
A: 10

Q: Which “4. mL1dL2 + Dox + IFNG” value does the source give for B2 here?
A: 8

Q: B5 was tested. Which “4. mL1dL2 + Dox + IFNG” value did it give?
A: 1

Q: B6 was tested. Which “4. mL1dL2 + Dox + IFNG” value did it give?
A: 1

Q: How did the “4. mL1dL2 + Dox + IFNG” value turn out when B7 was run?
A: 16

Q: How did the “4. mL1dL2 + Dox + IFNG” value turn out when B3 was run?
A: 11
